{"source": "paper PMC5065165", "about": "“Mechanistic Insights into Archaeal and Human Argonaute Substrate Binding and Cleavage Properties”", "molecules": {"B1": {"name": "D-as2bFAM (ss guide DNA) (ssDNA)", "DNA": "TAGAGGTACGTGCTGAGGCTT", "modifications": "5'-phosphate"}, "B2": {"name": "D-as2bFAM guide DNA / D-s2b target DNA (dsDNA)", "DNA 1": "TAGAGGTACGTGCTGAGGCTT", "DNA 2": "GCCTCAGCACGTACCTCTATT", "modifications": "5'-phosphate on guide"}, "B3": {"name": "D-as2bFAM guide DNA / 3'-mismatched target DNA (D-s2bmm) (dsDNA)", "DNA 1": "TAGAGGTACGTGCTGAGGCTT", "DNA 2": "GCCTCAGCAGCGGGAATATTT", "modifications": "5'-phosphate on guide"}}, "key": {"[1]": {"biological_target": "T1, MjAgo (Methanocaldococcus jannaschii) (UniProt Q58717)", "T1 sequence": "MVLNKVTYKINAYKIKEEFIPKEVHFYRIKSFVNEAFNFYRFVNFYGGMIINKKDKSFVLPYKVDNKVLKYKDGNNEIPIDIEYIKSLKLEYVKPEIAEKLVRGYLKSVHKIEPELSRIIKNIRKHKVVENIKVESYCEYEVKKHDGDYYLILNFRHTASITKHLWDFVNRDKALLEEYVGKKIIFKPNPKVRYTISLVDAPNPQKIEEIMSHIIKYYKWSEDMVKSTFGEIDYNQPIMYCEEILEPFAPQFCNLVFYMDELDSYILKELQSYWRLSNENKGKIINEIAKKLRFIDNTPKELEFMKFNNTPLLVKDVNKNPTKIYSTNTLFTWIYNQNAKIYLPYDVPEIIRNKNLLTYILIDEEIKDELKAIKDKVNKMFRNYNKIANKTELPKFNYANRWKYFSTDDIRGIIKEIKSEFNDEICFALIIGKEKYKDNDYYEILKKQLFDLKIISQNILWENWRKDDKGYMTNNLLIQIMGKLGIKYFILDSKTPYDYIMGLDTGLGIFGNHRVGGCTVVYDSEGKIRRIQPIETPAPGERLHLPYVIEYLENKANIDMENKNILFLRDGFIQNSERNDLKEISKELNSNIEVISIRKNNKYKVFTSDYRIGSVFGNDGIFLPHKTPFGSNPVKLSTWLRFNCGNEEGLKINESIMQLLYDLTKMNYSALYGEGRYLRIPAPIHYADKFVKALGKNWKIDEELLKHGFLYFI", "assay": "equilibrium fluorescence titration", "conditions": "5'-phosphate on guide; Stopped-flow at 25 °C, 20 nM FAM-labelled guide, same buffers as titrations (buffer composition not in the material; hybridization buffer 15 mM Hepes pH 7.4 …)"}, "MjAgo [2]": {"biological_target": "T2, MjAgo (Methanocaldococcus jannaschii, UniProt Q58717 1-713)", "T2 sequence": "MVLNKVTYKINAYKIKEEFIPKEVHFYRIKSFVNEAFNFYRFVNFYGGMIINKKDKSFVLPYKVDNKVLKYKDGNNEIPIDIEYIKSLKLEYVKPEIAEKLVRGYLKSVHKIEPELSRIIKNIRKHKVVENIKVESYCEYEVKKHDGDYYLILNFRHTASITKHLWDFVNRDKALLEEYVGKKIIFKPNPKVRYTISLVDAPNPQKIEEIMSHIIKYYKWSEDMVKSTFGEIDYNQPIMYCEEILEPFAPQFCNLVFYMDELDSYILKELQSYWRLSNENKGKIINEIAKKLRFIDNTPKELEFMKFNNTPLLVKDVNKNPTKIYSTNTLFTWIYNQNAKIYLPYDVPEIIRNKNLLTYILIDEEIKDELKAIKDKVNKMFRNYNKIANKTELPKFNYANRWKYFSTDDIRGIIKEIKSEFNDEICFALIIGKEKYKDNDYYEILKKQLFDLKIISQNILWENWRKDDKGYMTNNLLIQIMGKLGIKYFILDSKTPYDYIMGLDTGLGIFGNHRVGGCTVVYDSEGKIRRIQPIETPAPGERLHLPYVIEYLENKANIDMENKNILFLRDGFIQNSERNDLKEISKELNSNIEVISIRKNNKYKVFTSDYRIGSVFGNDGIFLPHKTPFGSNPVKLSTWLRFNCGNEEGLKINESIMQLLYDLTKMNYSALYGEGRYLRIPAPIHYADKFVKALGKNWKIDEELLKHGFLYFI", "assay": "equilibrium fluorescence titration; Stopped-flow at 25 °C, 20 nM FAM-labelled guide, same buffers as titrations (buffer composition not in the material; hybridization buffer 15 mM Hepes pH 7.4, 50 mM K-acetate, 1 mM Mg-acetate)", "conditions": "protein: recombinant; label: C6-linked 5/6-FAM at T14"}, "hAgo2": {"biological_target": "hAgo2 (human, UniProt Q9UKV8 1-859)", "sequence (Q9UKV8 whole entry)": "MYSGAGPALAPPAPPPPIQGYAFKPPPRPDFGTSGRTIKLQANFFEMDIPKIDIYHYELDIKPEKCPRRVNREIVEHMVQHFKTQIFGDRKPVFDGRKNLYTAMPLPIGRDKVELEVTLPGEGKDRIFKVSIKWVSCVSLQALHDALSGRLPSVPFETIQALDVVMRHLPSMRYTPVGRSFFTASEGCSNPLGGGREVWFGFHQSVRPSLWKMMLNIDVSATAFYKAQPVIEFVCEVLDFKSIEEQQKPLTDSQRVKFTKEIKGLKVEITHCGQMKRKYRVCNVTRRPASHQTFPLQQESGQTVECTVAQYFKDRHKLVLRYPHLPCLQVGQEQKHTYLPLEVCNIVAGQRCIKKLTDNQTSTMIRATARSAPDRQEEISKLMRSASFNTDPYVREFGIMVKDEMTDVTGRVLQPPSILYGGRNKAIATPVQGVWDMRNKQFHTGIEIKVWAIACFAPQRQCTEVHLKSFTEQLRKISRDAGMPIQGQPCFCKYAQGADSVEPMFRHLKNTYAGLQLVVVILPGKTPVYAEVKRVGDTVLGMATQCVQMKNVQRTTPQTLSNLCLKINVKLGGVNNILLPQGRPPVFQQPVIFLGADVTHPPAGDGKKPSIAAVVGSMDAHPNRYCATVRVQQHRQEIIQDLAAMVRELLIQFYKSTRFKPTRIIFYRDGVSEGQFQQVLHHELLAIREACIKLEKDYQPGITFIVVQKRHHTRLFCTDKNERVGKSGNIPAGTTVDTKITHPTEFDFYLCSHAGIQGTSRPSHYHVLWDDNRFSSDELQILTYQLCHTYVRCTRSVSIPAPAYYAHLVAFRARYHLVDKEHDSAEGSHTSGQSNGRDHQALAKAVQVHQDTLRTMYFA", "assay": "stopped-flow fluorescence; three-step; k1 0.1e8 M-1 s-1; Kd n.d.; Stopped-flow at 25 °C, 20 nM FAM-labelled guide, same buffers as titrations (buffer composition not in the material; hybridization buffer 15 mM Hepes pH 7.4, 50 mM K-acetate, 1 mM Mg-acetate)", "conditions": "protein: recombinant; label: C6-linked 5/6-FAM at T14"}, "[3]": {"biological_target": "T3, MjAgo Mid mutant (Tyr442Ala) (Methanocaldococcus jannaschii, UniProt Q58717 1-713, Y442A)", "T3 sequence": "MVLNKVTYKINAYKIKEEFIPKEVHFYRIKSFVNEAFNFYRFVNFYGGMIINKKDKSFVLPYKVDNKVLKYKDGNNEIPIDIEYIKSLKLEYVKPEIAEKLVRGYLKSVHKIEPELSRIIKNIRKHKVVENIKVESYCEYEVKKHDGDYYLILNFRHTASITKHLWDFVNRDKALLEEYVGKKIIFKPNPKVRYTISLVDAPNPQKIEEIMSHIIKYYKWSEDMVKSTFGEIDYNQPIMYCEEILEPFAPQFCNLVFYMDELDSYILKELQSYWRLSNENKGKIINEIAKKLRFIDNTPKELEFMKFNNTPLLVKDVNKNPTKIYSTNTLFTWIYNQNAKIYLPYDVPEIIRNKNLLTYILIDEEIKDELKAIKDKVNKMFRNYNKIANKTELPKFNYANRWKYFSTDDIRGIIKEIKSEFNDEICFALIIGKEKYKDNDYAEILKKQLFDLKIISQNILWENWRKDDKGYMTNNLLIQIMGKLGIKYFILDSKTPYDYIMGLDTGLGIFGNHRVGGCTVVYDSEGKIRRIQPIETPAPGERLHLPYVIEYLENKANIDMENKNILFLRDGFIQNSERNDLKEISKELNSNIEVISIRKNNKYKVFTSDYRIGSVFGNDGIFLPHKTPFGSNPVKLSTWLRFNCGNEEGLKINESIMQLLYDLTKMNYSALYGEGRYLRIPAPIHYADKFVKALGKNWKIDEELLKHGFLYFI", "assay": "stopped-flow fluorescence; two-step, Mid binding phase missing; k3 0.002 s-1; Kd n.d.; Stopped-flow at 25 °C, 20 nM FAM-labelled guide, same buffers as titrations (buffer composition not in the material; hybridization buffer 15 mM Hepes pH 7.4, 50 mM K-acetate, 1 mM Mg-acetate)", "conditions": "protein: recombinant; label: C6-linked 5/6-FAM at T14"}, "MjAgo [4]": {"biological_target": "T2, MjAgo", "assay": "equilibrium fluorescence titration; target binding to preformed MjAgo-guide DNA; Stopped-flow at 25 °C, 20 nM FAM-labelled guide, same buffers as titrations (buffer composition not in the material; hybridization buffer 15 mM Hepes pH 7.4, 50 mM K-acetate, 1 mM Mg-acetate)", "conditions": "protein: recombinant; label: C6-linked 5/6-FAM at guide T14; guide preloaded on Ago, target added; 3' overhang 2 nt on both strands"}, "MjAgo [5]": {"biological_target": "T2, MjAgo", "assay": "stopped-flow fluorescence; two-step, third phase undetectable; k2 0.018 s-1; Kd n.d.; Stopped-flow at 25 °C, 20 nM FAM-labelled guide, same buffers as titrations (buffer composition not in the material; hybridization buffer 15 mM Hepes pH 7.4, 50 mM K-acetate, 1 mM Mg-acetate)", "conditions": "protein: recombinant; partially mismatched; guide preloaded on Ago, target added"}}, "data": [{"molecule": "TAGAGGTACGTGCTGAGGCTT / GCCTCAGCACGTACCTCTATT [D-as2bFAM/D-s2b (ds siDNA, D-si2bFAM)]", "values": [{"measurement": "Kd", "setting": "[1]", "value": 103, "unit": "nM"}]}, {"molecule": "B1", "values": [{"measurement": "Kd", "setting": "MjAgo [2]", "value": "3.4 ± 0.4", "unit": "nM"}, {"measurement": "binding result", "setting": "hAgo2", "value": "binds"}, {"measurement": "binding result", "setting": "[3]", "value": "binds"}]}, {"molecule": "B2", "values": [{"measurement": "Kd", "setting": "MjAgo [4]", "value": "0.5 ± 0.04", "unit": "nM"}]}, {"molecule": "B3", "values": [{"measurement": "binding result", "setting": "MjAgo [5]", "value": "binds"}]}]}
